Measurements reported in the nanobody polyreactivity screen of Harvey et al. (2022).

Experiment: yeast display, Sf9 membrane polyspecificity reagent, FACS + sequencing; frameworks hold sequencing errors
How it was run: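 After 36–48 hours of galactose induction, yeast (Saccharomyces cerevisiae BJ5465) displaying a synthetic nanobody library were stained at 4 °C for 1 hour with 10% biotinylated, detergent-solubilized Sf9 membrane reagent. Streptavidin microbeads enriched the stained cells before FACS sorting into low and high (top ~1%) gates on anti-HA and streptavidin fluorescence. Each clone's polyreactivity label reflects its gate of origin.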

Sequence | polyreactivity (PSR sort gate)
QVQLVESGGGLVQAGGSLRLSCAASGIIFAYYTMGWYRQAPGKLRELVAAISWNGGRTYYADSVKGRFTISRDNAKNTVYLQINSLKPEDTAVYYCAARDASSFLRSYYWGQGTQVTVSS | high polyreactivity
QVQLVESGGGLVQAGGSLRLSCAASGRTFYANAMGWYRQAPGKERELVAAISTGGDGTYYADSVKGRFTISRDNAKNTVYLQMNSLKPEDTAVYYCAVRHRASGILYDYWGQGTQVTVSS | low polyreactivity
QVQLVESGGGLVQAGGSLRLSCAASGSTSGLYAMGWYRQAPGKERELVATISLSGGSTYYADSVKGRFTISRDNAKNTVYLQMNSLKPEDTAVYYCNTDKYKWNYGSTYRMDYWGQGTQVTVSS | low polyreactivity
QVQLVESGGGLVQAGGSLRLSCAASGYTFDPNAMGWYRQAPGKERELVAAISRIGGSTYYADSVKGRFTISRDNAKNTVYLQMKSLKPEDTAVYYCAVDWYLTGHWADDYWGQGTQVTVSS | low polyreactivity
QVQLVESGAGLVQAGGSLRISCDASGSIFWSYAMGWYRQAPGKERELVADITGIGGSTYYADSVKGRFTISRDNAKNTVYLQMNSLKPEDTAVYYCAADTWFTAQTYNFYYRGQGTQVTVSS | high polyreactivity
QVHLVESGGGLVQAGGSLRLSCAASGGTIAFNGMGWYRQAPGKDRELVAAITWRSGSTYYADSVKGRFTISRDNPKNPVYLQMNSLKPDDTAVYYCNAARAVYTQKRFDSWGQGTQVTVSS | high polyreactivity
QVQLVESGGRLVQAGGSLRLSCAASGSIFYTYAMGWYRQAPGKEMELVAAITYRVGSTYYADSVKGRFTISRDNAKNTVYLQMNSLKPEDTAVYYCNADKGGHVRHYDYWGQGTQVTVSS | low polyreactivity
QVQLVESGGGLVQAGGSLRLSCAASGITFYGNAMGRYRQAPGKEREVVAAISSSGGTTYYADSVKGRFTISRDNAKNTVYLQMNSLKPEDTAVYFCNALHPVVYYGTYFNLRRYDYWGQGTQVTVSS | low polyreactivity
QVQLVESGGGLVQAGGSLRLSCAASGFIIGVNDMGWYRQPPGKERELVAAITSGGNTNYADSVKGRFTISRDNAKNTVYLQMNSLKPEDTAVYYCIVDTRLPMDYWGQGTQVTVSS | low polyreactivity
QLQREESGGGLVQAGGSLRLSCAASGRTFTRYAMGWYRQAPVKERELVAAISGGGGSTYYADSVKGRFTISRDNAKITVYLQINSLKPEDTAVYYCNAAARVYSFDYWGQGTQVTVSS | low polyreactivity
QVQLVESGGGLVQAGGSLRLSCAASGRIFHGYAMGWYRQAPGKERELVATIRSGGGTYYADSVKGRFTISRDNAKNSVYLQINSLKPDDTAVYYCNAQSSYSYFSGYDYWGQGSQVTVSS | low polyreactivity
QVQLVESGGGLVQAGGSLRLSCAASGRIFGINAMGWYRQAPGKERELVAAIDSAGRTYYADSVKGRFTISRDNAKNTVYLQMNSLKPEDTAVYSCNKDHSLYEHNYWGQGTQVTVSS | low polyreactivity
QVQLVESGGGLVQAGGSLRLSCAASGRIFGTNAMGWYRQAPGKEREMVATITRGGGNTYYADSVKGRFTISRDNAKNTVYLQMNSLKPEDTAVYYCAAKFHRFAWFSHYDYWGQGTQVTVSS | low polyreactivity
QVQLVESGGGLVQAGGSLRLSCAASGIIFYQNTMGWYRQAPGKERELVATITKRGGSTYYADSVKGRFTISRDNAKNTVYLQMNSLKPEDTAVYYCNAAKYAASYIGYGYWGQGTQVTVSS | high polyreactivity
QVQLVESGGGLVQAGGSLRLSCAASGSTSVYAMGWYRQAPGKERELVAAITRGGSTYYADSVKGRFTISRDNAKNTVYLQMNRLKPEDTAVYYCAVETYYSIFDIYDYWGQGTQVTVSS | low polyreactivity
QVQLVESGGGLVQAGGSLRLSCAASGITFLDYAMGWYRQAPGQERELVAAISKRGGSTYYADSVKGRFTISRDKAKNTVYLQMNSLKPEDTAVYYCAAYYHSVRNDYFYYWGQGTQVTVSS | high polyreactivity
QVQLVESGGGLVQAGGSLRLICAASGSIFDPYAMGWYRQAPGKERELVAAITYSAARTYYADSVKGRFTISRDNAKNTVYLQMNSLKPEDTAVYYFNRVVRREAERYDYWGQGTQVTVSS | high polyreactivity
QVKLVESGGGLVQAGGSLRLSCAASGFTFSGYDMGWYRQAPGKERELVAGISSGGVSTTYADSVKGRFTISRDNAKNTVYLQMNSLIPEDTAVYYCNAEWTSFDWGQGTQVTVSS | low polyreactivity
QVQLVESGGGLVQAGGSLRLSCAASGSTFGIYARGWYIQAPGKEWDLVAAITWIGSDTYYADSVKGRFTISRDNAKNTVYLQMISLKPEDTAVYYCNAVKLLGTRGYGYWGQGTQVTVSS | high polyreactivity
QVQLVESGGGLVQAGGSHRLSCAASGRTFQENGMGWYRQAPGKERELVATISQRGTSTYYADSVKGRFTISRDNAKNTVYLQMNSLKPEDTAVYYCARRRVYRWYTGDYWGQGTQVTVSS | low polyreactivity
QVQLVESGGGLVQAGGSLRLSCATSGRTFWFYAMGWYRQAPGKERELVAAISSGGSTNYADSVKGRFTISRDNAKNTVYLQMNSLKPEVTAVYYCAKVGNIPYGTRYYSNRYDYWGQGTQVTVSS | low polyreactivity
QVQLVESGGGLVQAGGSLRLSCAASGSIFIYYAMGWYRQAPGKERELVARITGGGSTYYADSVKGRFTISRDNAKNTVYLQMNSLKPEDTAVYYCAKRGYHFLTKYDYWGQGTQVTVSS | low polyreactivity

Sequence | polyreactivity (PSR sort gate)
QVQLVESGGGLDQAGGSLRLSCAASGRTFGKYAMGWYRQAPGKERELVAAITGGGGTKYADSVKGRFTISRDNAKNTFYLQMNSLKPEDTAVYYCAAASGSRRHGFWGQGTQVTVSS | high polyreactivity
QVQLVESGGGLVQAGGSLRLSCAASGRIFYPNAMGWYRQAPGQERELVAAISLSAGSTYYADSVKGRFTISRDNAKNTVSLQMNSLKPEDTAVYYCATQGNSPRGTRRYGYWGQGTQVTVSS | high polyreactivity
QVQLVESGGGLVQAGGSLRLSCAASGRIFAIYAAIGWYRQAPGKERELVAAISSGDNTNYADSEKGRFTISRDNAKNTVYLQMNSLIPEDTAVYYCATDLVYYAAVTKFAEYDYWGQGTQVTVSS | low polyreactivity
QVQLVESRGGLVQAGGSLRLSCAASGPTFLINAMGCYRQAPGKETELVAEITGRGSSTYYADSVKGRFTISRDNAINTVYLQMNSLKAEDTAVYYCNAVLRKMTYDYWGQGTQVTVSS | high polyreactivity
QVQLVESGGGLVQAGGSLRLSCAASGSTFGDNAMGWYRQAPGKERELVAAITSVGTTYYADSVKGRFTISRDNAKNTVYLQMNSLKPEDTAVYYCNAEYVWDDYFEFDYWGQGTQVTVSS | low polyreactivity
QVQLVESGGGLVQAGGSLRLSCAASGRNFPYYAMGWYRQAPGKERELVAAISSSGGGTYYADSVKGRFTISRDNEKNTVYLQMNSLKPEDTAVYYCAAVYKVHSGLYDYWGQGTQVTLSS | high polyreactivity
QVQLVESGGGLVQAGASLRLSCAASGSIFKDNAMGWYRQAPGKERELVAAISWNGGSTYYADSVKGRFTISRDNAKNTVYLHMNSLKPEDTAVYYCATRIYGWSFGSWYKYDYWGQGTQVTVSS | low polyreactivity
EEELVESGGGLVQAGGSLRLSCAASGRIFGPYAMGWYRQAPGKEREFVAAISGGGGNTYYADSVKGRFTISRDNAKNTVNLQMNSLKPEDTAVYYCAAQHVPRWWWYAPVKYDYWGQGTQVTVSS | low polyreactivity
QVQLVESGGGLVQAGGSLRLSCAASGRTLYYYGMGWYRQAPGKERELVASITNGGNTNYADSVKGRFTISRDNAKNTVYLQMNSLKPEDTAVYYCAKDVPYWRPVVRYDYWGQGTQVTVSS | low polyreactivity
QVQLVESGGGLVQAGGSLRLSCAASGSIFAYNAKGWYRPAPGKEREFVAVITRSDDSTYADSVKWRFTISRDNAKNTVYLQMNSLKPEDTSVYYCAAQPFVIDCGYRGDYWGQATQVTVSS | low polyreactivity
QVQLEESGGGLVQAAGRLRVSCAASGYIYGYAMGWYKQAPAKEMELVAAITRGGGRTYYADSVKGRFTISRDNAKNTVYFQMHSLKPVDTAVYYCAVAANRGKGFYEYYHWGQGTQVTVSS | high polyreactivity
QVQLVESGGGLVQAGGSLRLSCAASGRTFGWYTMGWYRQAPGKEREFVAAISSSDTSTYYADSVKGRFTISRDNAKNTVYLQMNSLKPEDTAVYYCAADPPSWLWFVGYSYDYWGQGTQVTVTS | low polyreactivity
QVQLVESGGGLVQAGGSLRLSCAASGRTSRHYAMGWYRQAPGKERELVAAISRSGGSTYYADSVKGRFTISRDNAKNTFYLQMNILKPDDSAVYYCNKDLKYYTSTYDYWGQGTQVTVSS | high polyreactivity
QLQLEESGGGLVQAGGSLRISCDASGTIFGNYAMGWYRQAPGKERELVAAITGSGGRTYYADSVKGRFTISRDNAKNTVYLQMNSLKPEDTAVYYCAARSYGRWYYTLYNYWGQGTQVTVSS | high polyreactivity
QVQLVESGGGLVQAGGSLRLSCAASGSIFYANAMGWYRQAPGKERELVAAISRSGGRTYYADSVKGRFTISRDNSKNTVYLQMNSLKPEDTAVYYCAADTGRYRDSNYWGQGTQVTVSS | high polyreactivity
QVQLVESGGGLVQAGGSLRLSCAASGRIFKTYAMGWYRQAPGKERELVAAITWDVVRTYYADSVKGRFTISRDNAKNTVYLQMNSLKPEETAVYYCAAEGIRRSQRFNYWGQGTQVTVSS | high polyreactivity
QVQLGESGGGLVQAGGSLRLICAASGSIFDQYAMGWSRPAPGKERELVAAIDTSGGSTYYADSVKGRFTISRDNAKYTVYLQMNSLKPEDTAVYYCAARGDGTFYEGYDYWGQGTQVTVSS | low polyreactivity
QVQLVESGGGLVQAGGSLRLSCAASGRTFNWYAMGWYRQAPGKEWELVAAISGGGGSTYYADSVKGRFTISRDNAKNTVYLQMNSLKPEDTAVYYCAADVEGWTVESDVYRVGYDYWGQGTQVTVSS | low polyreactivity
QVQLVESGGGLVQAGGSLRLSCAASGSTFVYNAMGWYRQAPGKERELVAAITVIGGRTYYADSVKGRFTISRDNAKNTVYLQMNSLKPEDTAVYYCAAVTYWFWPGMDYWGQGTQVTVSS | low polyreactivity
QVQLVESGGGLVQAGGSLRLSCAASGRTFRCYAMGWDRQAPGKERELVAAITYSVGSTYYADSVKGRLTISRDTAKNTVYLQMNSLKPEDTAVYYCAADSYPYRYRGKYSRLDYCGQGTQVTVSS | low polyreactivity
QDQLVESGGGLVQAGGSLRLSCAASGYTFTSNAMGWYRQAPRKERELVAAITNVGSTNYADSVKGRFTISRDNAKNTVNLQMNSLKPEDTAVYYCAAGGSSSWAFNYWGQGTQVTVSS | low polyreactivity
